According to article PMC9780223 (2022):

Biological target: purified recombinant PAPP-A free of STC2 (apo PAPP-A) (human, UniProt Q13219 82-1627, fluorescently labeled with Protein Labeling Kit RED-NHS (in MST))
Assay: MST; in the presence of IGF2

Kd: ~160 nM
B1: IGFBP4 with C-terminal His6 tag (natural protein)
chain: DEAIHCPPCSEEKLARCRPPVGCEELVREPGCGCCATCALGLGMPCGVYTPRCGSGLRCYPPRGVEKPLHTLMHGQGVCMELAEIEAIQESLQPSDKDEGDHPNNSFSPCSAHDRRCLQKHFAKIRDRSTSGGKMKVNGAPREDARPVPQGSCQSELHRALERLAASQSRTHEDLYIIPIPNCDRNGNFHPKQCHPALDGQRGKCWCVDRKTGVKLPGGLEPKGELDCHQLADSFRE
